Laboratory results taken from patent US20200181283A1 (AGENCY FOR SCIENCE TECHNOLOGY AND RESEARCH, published 2020).

Key:
purified human PRL-3 [1] = target: T1, purified human PRL-3 (human, UniProt O75365 1-173, limits assumed); assay: KinExA kinetic exclusion assay
T1 construct: Antigen of the KinExA analysis; also called PTP4A3; PRL-3 antigen

purified human PRL-3 [2] = target: T1, purified human PRL-3; assay: KinExA kinetic exclusion assay, purified antibody and purified human PRL-3

T1 sequence (O75365 whole entry): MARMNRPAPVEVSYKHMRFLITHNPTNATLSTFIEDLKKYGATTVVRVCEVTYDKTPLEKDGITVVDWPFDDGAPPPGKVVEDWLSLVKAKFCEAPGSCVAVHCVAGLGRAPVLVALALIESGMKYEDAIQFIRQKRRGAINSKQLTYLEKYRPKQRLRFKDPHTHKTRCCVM

koff (purified human PRL-3 [1]): 6.68e-05 s⁻¹ | kon (purified human PRL-3 [1]): 1.06e+07 M⁻¹ s⁻¹ | Kd (purified human PRL-3 [2]): 6.29 pM
B1: PRL3-zumab (antibody, V domains shown)
VH: QVQLVQSGAEVKKPGASVKVSCKASGYTFTNYYMHWVRQAPGQLEWMGWIYPGNVNTYYNEKFRGRVTITADTSASTAYMLSSLRSEDTAVYYCASEEKNYPWFAYWGQGTLVTS
VL: DTQLTQSPSSLSASVGDRVTICKASQSVEDDGENYMNWYQQKPGSPKLLIYAASNLESGIPARFSGSGSGTDFTLTISSLPEDFATYYCQQSNEDPFTFGSGTKLEIK
